Data from patent US20150030597A1 (US Dept. of Health and Human Services, published 2015).

B1: DC101-CD828Z CAR (other)
chain: EVQLVETGGGLVQPGNSLKLSCATSGFIFSTTWMNWIRQTPGKRLEWLAQIEDKSNNYFISYSESVKGRFTISRDDSKSSVYLQMNNLKEEDTAIYYCSWKYRSNYYFDYWGQGVMVTVSSGSTSGSGKPGSGEGSDIVLTQSPALAVSLEQRATISCKTSQNVDYYGISYLHWYQQKPGQQPKLLIYEGSNLASGIPARFSGSGSGTDFTLTIDPVEADDIVTYYCQQSKDYPYTFGAGTKLELKAAATTTKPVLRTPSPVHPTGTSQPQRPEDCRPRGSVKGTGLDFACDIYIWAPLAGICVALLLSLIITLICYHRSRNSRRNRLLQVTTMNMTPRRPGLTRKPYQPYAPARDFAAYRPRAKFSRSAETAANLQDPNQLYNELNLGRREEYDVLEKKRARDPEMGGKQQRRRNPQEGVYNALQKDKMAEAYSEIGTKGERRRGKGHDGLYQGLSTATKDTYDALHMQTLAPR
notes: Chimeric antigen receptor on transduced primary mouse T cells: same as DC101-CD828BBZ but without the 4-1BB signalling domain; also called DC101-mCD828Z; MSGV-DC101-CD828Z
B2: DC101-CD8 (other)
chain: EVQLVETGGGLVQPGNSLKLSCATSGFIFSTTWMNWIRQTPGKRLEWLAQIEDKSNNYFISYSESVKGRFTISRDDSKSSVYLQMNNLKEEDTAIYYCSWKYRSNYYFDYWGQGVMVTVSSGSTSGSGKPGSGEGSDIVLTQSPALAVSLEQRATISCKTSQNVDYYGISYLHWYQQKPGQQPKLLIYEGSNLASGIPARFSGSGSGTDFTLTIDPVEADDIVTYYCQQSKDYPYTFGAGTKLELKTTTKPVLRTPSPVHPTGTSQPQRPEDCRPRGSVKGTGLDFACDIYIWAPLAGICVALLLSLIITLICYHRSR
notes: also called MSGV-DC101-CD8
B3: DC101-CD828BBZ CAR (other)
chain: EVQLVETGGGLVQPGNSLKLSCATSGFIFSTTWMNWIRQTPGKRLEWLAQIEDKSNNYFISYSESVKGRFTISRDDSKSSVYLQMNNLKEEDTAIYYCSWKYRSNYYFDYWGQGVMVTVSSGSTSGSGKPGSGEGSDIVLTQSPALAVSLEQRATISCKTSQNVDYYGISYLHWYQQKPGQQPKLLIYEGSNLASGIPARFSGSGSGTDFTLTIDPVEADDIVTYYCQQSKDYPYTFGAGTKLELKAAATTTKPVLRTPSPVHPTGTSQPQRPEDCRPRGSVKGTGLDFACDIYIWAPLAGICVALLLSLIITLICYHRSRNSRRNRLLQVTTMNMTPRRPGLTRKPYQPYAPARDFAAYRPKWIRKKFPHIFKQPFKKTTGAAQEEDACSCRCPQEEEGGGGGYELRAKFSRSAETAANLQDPNQLYNELNLGRREEYDVLEKKRARDPEMGGKQQRRRNPQEGVYNALQKDKMAEAYSEIGTKGERRRGKGHDGLYQGLSTATKDTYDALHMQTLAPR
notes: also called DC101-mCD828BBZ; MSGV-DC101-CD828BBZ

Target: T1, soluble mouse VEGFR2-hIgG.FC fusion protein (mouse; human, UniProt P35918 20-762)
T1 construct: Bought from R&D Systems; also called soluble mouse VEGFR-2-human IgG-FC fusion protein; mVEGFR2-hIgG.FC; not shown: human IgG Fc
T1 sequence (P35918 20-762 limits assumed): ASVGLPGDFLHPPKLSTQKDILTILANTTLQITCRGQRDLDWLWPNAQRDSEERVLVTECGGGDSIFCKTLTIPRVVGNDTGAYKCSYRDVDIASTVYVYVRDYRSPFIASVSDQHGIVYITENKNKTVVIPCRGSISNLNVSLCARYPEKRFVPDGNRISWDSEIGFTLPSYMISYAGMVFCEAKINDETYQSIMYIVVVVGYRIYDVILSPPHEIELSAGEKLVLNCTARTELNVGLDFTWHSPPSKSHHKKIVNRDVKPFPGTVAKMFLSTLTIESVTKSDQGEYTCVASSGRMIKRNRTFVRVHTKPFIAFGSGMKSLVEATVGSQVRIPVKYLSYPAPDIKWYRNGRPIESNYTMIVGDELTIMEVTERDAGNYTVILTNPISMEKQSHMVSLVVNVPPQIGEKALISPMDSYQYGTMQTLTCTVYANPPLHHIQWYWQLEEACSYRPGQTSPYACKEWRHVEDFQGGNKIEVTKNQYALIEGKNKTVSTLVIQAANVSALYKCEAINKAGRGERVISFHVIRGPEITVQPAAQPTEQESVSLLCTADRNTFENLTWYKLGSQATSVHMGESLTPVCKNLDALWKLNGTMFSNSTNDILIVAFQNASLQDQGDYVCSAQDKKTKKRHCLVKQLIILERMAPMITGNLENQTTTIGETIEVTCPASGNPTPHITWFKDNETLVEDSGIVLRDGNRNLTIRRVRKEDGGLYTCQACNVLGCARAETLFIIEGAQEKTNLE
Test: flow cytometry, transduced mouse CD3+CD8+ T cells stained with soluble mVEGFR2-hIgG.FC and PE anti-human IgG-FC; mean ± SEM of 5 experiments
Description: (§1) Mouse T cells were retrovirally transduced with retroviral vectors DC101-CD828Z or DC101-CD828BBZ CAR as described in Example 5 or were transduced with the DC101-CD8 or SP6-CD828BBZ vectors described in Comparative Example 1, or with an empty MSGV vector (lacking any of the CAR sequences). Surface expression of the retrovirally encoded transgene products in transduced CD3⁺ primary mouse T cells was determined by flow cytometry using the soluble mouse VEGFR-2-human IgG-FC fusion protein and PE-conjugated anti-human IgG-FC.
(§2) On day 4 post-transduction, cells were costained with anti-mouse CD8 antibody and CAR-specific reagents and were FACS analysed to determine the expression of transgene products in CD8⁺and CD8″ T cell subsets. Detection of DC101 CAR on retrovirally transduced mouse T cells on day 4 after transduction was achieved by indirect immunofluorescence with soluble mouse (m) VEGFR2-hIgG.FC fusion protein (R&D Systems®, Minneapolis, […].), followed by staining with a phycoerythrin (PE)-labeled goat anti-human IgG-FC antibody (eBioscience™, San Diego, Calif.). Briefly, 5×10⁵ cells were incubated with 2 μg of bovine serum albumin (BSA; Sigma-Aldrich®) or species-specific soluble mVEGFR2-hIgG.FC protein at 4° C. for 45 min. Cells were then washed in FACS buffer (phosphate buffered saline containing 1% FBS) and stained with PE-conjugated anti human IgG-FC (αchIgG.FC). At this step, mouse T cells were co-stained with peridinin chlorophyll (PerCP)-labeled anti-mouse CD8 (BD Pharmingen, San Diego, Calif.) at appropriate concentrations recommended by the manufacturer at 4° C. for 20-30 min, then washed and resuspended in FACS buffer. Cells incubated with 2 μg bovine serum albumin (BSA) and subsequently stained with PE-conjugated anti human IgG-FC (αhIgG-FC) and PerCP labeled anti-mouse CD8 served as a control.

% Transduction (percent transgene positive cells) | Mean Fluorescence Intensity (MFI) | Binder
86% | 92 | B1
80.8% | 108 | B2
78.2% | 75.8 | B3

Target: T1, soluble mouse VEGFR2-hIgG.FC fusion …
Test: flow cytometry, transduced mouse CD3+CD4+ T cells stained with soluble mVEGFR2-hIgG.FC and PE anti-human IgG-FC; mean ± SEM of 5 experiments
Description: as §1, §2

% Transduction (percent transgene positive cells) | Mean Fluorescence Intensity (MFI) | Binder
84% | 95 | B1
83.2% | 114 | B2
79% | 76.5 | B3
